Source: patent publication US7794719 (dated 2010)
Positions count from the first letter of the chain named.

B1: MS-R 7.11.H1 x 7.2.L1 IgG1 (antibody, V domains shown)
VH: QLVESGGGLVQPGGSLRLSCAASGFTFSSYAMSWVRQAPGKGLEWVSGINAAGFRTYYADSVKGRFTISRDNSKNTLYLQMNSLRAEDTAVYYCARGKGNTHKPYGYVRYFDVWGQGTLVTVSS
VL: DIVLTQSPATLSLSPGERATLSCRASQYVDRTYLAWYQQKPGQAPRLLIYGASSRATGVPARFSGSGSGTDFTLTISSLEPEDFATYYCQQIYSFPHTFGQGTKVEIKR
B2: MS-R 7.9.H2 IgG1 (antibody, V domains shown)
VH: B1 VH with G48A, A52D, F54N, T56K
VL: B1 VL with Y28S, D30S, R31S, T32S, Q90L, S94N, F95M, H97I
B3: MS-R 7.11.H1 x 7.11.L1 IgG1 (antibody, V domains shown)
VH: B1 VH
VL: B1 VL with Y28R, V29I, D30L, T32I, I92V, F95P
B4: MS-R 7.9.H7 IgG1 (antibody, V domains shown)
VH: QVELVESGGGLVQPGGSLRLSCAASGFTFSSYAMSWVRQAPGKGLEWVSAINASGTRTYYADSVKGRFTISRDNSKNTLYLQMNSLRAEDTAVYYCARGKGNTHKPYGYVRYFDVWGQGTLVTVSS
VL: B1 VL with Y28S, D30S, R31S, T32S, Q90L, S94N, F95M, H97I
B5: MS-R 3.6.H5 x 3.6.L2 IgG1 (antibody, V domains shown)
VH: QLVESGGGLVQPGGSLRLSCAASGFTFSSYAMSWVRQAPGKGLEWVSAISESGKTKYYADSVKGRFTISRDNSKNTLYLQMNSLRAEDTAVYYCARLTHYARYYRYFDVWGQGTLVTVSS
VL: B1 VL with Y28F, V29L, D30S, T32Y, T86V, I92T, S94N, F95Y, H97P
B6: MS-R 7.4.H2 x 7.2.L1 IgG1 (antibody, V domains shown)
VH: B1 VH with G48A, A51Y, A52N, F54A, T56I
VL: B1 VL
B7: MS-R 7.9H4 Fab (antibody, V domains shown)
VH: B1 VH with G48A, A52V, F54M, R55K, T56K, Y57F
VL: B1 VL with Y28S, D30S, R31S, T32S, Q90L, S94N, F95M, H97I
B8: MS-R 7.9 Fab (antibody, V domains shown)
VH: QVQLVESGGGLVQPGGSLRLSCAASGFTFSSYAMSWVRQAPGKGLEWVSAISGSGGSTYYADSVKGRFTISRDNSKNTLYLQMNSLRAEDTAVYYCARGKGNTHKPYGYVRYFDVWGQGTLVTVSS
VL: B1 VL with Y28S, D30S, R31S, T32S, Q90L, S94N, F95M, H97I
B9: MS-R 7.9H2 Fab (antibody, V domains shown)
VH: B1 VH with G48A, A52D, F54N, T56K
VL: B1 VL with Y28S, D30S, R31S, T32S, Q90L, S94N, F95M, H97I
B10: MS-R 7.11L1 Fab (antibody, V domains shown)
VH: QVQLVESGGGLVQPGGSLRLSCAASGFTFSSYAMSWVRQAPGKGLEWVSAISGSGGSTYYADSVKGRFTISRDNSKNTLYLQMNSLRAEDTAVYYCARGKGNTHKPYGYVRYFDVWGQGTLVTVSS
VL: B1 VL with Y28R, V29I, D30L, T32I, I92V, F95P
B11: MS-R 7.2L1 Fab (antibody, V domains shown)
VH: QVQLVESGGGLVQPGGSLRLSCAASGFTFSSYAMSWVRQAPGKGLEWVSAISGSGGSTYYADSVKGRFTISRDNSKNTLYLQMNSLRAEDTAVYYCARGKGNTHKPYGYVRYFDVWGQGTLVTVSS
VL: B1 VL
B12: MS-R 3.6L1 Fab (antibody, V domains shown)
VH: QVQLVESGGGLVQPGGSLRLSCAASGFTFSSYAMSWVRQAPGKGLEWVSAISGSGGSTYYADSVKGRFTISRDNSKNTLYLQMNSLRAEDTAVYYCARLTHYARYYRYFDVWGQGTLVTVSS
VL: B1 VL with Y28F, V29I, D30Q, T32F, T86V, I92T, S94N, F95Y, H97P
B13: MS-R 3.6L2 Fab (antibody, V domains shown)
VH: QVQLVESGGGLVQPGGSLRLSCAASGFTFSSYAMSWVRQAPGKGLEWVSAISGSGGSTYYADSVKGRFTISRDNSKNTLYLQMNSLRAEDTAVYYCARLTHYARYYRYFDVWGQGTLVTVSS
VL: B1 VL with Y28F, V29L, D30S, T32Y, T86V, I92T, S94N, F95Y, H97P
B14: MS-R 3.4L7 Fab (antibody, V domains shown)
VH: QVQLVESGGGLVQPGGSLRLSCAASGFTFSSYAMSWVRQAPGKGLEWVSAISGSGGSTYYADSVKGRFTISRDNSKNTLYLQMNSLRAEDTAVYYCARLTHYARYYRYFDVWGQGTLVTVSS
VL: B1 VL with Y28R, V29L, D30G, T32L, I92T, S94D, F95Y, H97P
B15: MS-R 7.9H7 Fab (antibody, V domains shown)
VH: B4 VH with E3Q
VL: B1 VL with Y28S, D30S, R31S, T32S, Q90L, S94N, F95M, H97I
B16: MS-R 3.4L9 Fab (antibody, V domains shown)
VH: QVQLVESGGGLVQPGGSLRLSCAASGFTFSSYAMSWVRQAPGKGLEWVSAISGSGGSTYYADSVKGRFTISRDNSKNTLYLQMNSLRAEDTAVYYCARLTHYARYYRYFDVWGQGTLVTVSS
VL: B1 VL with Q27R, Y28R, V29I, D30H, R31V, T32Y, I92T, S94D, F95Y, H97P
B17: MS-R 3.6.H8 x 3.6.L2 IgG1 (antibody, V domains shown)
VH: B5 VH with S52Y, G53S, T55F
VL: B1 VL with Y28F, V29L, D30S, T32Y, T86V, I92T, S94N, F95Y, H97P

What follows are binders tested against Aβ1-40 fibers (human) (assay: SPR).

Row | Kd [pM] | Binder
1 | 660 | B1
2 | 420 | B2
3 | 700 | B3
4 | 690 | B4
5 | 1030 | B5
6 | 630 | B6

Target: Aβ1-40 fibers (human)
Test: SPR
Remark: another data set of the same source

Row | Kd [pM] | Binder
7 | 4800 | B7
8 | 31000 | B8
9 | 5000 | B9
10 | 1100 | B10
11 | 13300 | B11
12 | 15600 | B12
13 | 13700 | B13
14 | 9300 | B14
15 | 1000 | B15
16 | 16300 | B16

These binders were tested against Aβ1-42 fibers (human) (assay: SPR).

Row | Kd [pM] | Binder
17 | 150 | B1
18 | 110 | B2
19 | 130 | B3
20 | 240 | B4
21 | 200 | B5
22 | 120 | B6

Target: Aβ1-42 fibers (human)
Test: SPR
Remark: another data set of the same source

Row | Kd [pM] | Binder
23 | 4200 | B7
24 | 93000 | B8
25 | 5700 | B9
26 | 1200 | B10
27 | 12700 | B11
28 | 11100 | B12
29 | 13100 | B13
30 | 9300 | B14
31 | 900 | B15
32 | 9100 | B16

Target: Aβ1-40 fibers (human)
Test: SPR
Remark: another data set of the same source

Row | Kd [pM] | Binder
33 | 140 | B1
34 | 120 | B2
35 | 110 | B3
36 | 250 | B4
37 | 200 | B5
38 | 120 | B6

Target: Aβ1-42 fibers (human)
Test: SPR
Remark: another data set of the same source

Row | Kd [pM] | Binder
39 | 670 | B1
40 | 380 | B2
41 | 700 | B3
42 | 700 | B4
43 | 950 | B5
44 | 560 | B6

The binders below were run against Aβ1-42 fibers (human) (assay: SPR, bivalent).

Row | Kd [pM] | Binder
45 | 220 | B17

These binders were tested against Aβ1-40 fibers (human) (assay: SPR, bivalent).

Row | Kd [pM] | Binder
46 | 220 | B17

What follows are binders tested against Aβ1-40 fibers (human) (assay: SPR, monovalent).

Row | Kd [pM] | Binder
47 | 950 | B17

The binders below were run against Aβ1-42 fibers (human) (assay: SPR, monovalent).

Row | Kd [pM] | Binder
48 | 820 | B17
